From US20170107258A1 (CANCER RESEARCH TECHNOLOGY, published 2017)
[ ]: non-standard residue; d: D form. βSer = β-serine (lower case s in P1); βArg = β-arginine (lower case r); βLeu = β-leucine (lower case l)

T1: purified recombinant ADAM8
T1 sequence (Q05910 whole entry, species assumed, looked up): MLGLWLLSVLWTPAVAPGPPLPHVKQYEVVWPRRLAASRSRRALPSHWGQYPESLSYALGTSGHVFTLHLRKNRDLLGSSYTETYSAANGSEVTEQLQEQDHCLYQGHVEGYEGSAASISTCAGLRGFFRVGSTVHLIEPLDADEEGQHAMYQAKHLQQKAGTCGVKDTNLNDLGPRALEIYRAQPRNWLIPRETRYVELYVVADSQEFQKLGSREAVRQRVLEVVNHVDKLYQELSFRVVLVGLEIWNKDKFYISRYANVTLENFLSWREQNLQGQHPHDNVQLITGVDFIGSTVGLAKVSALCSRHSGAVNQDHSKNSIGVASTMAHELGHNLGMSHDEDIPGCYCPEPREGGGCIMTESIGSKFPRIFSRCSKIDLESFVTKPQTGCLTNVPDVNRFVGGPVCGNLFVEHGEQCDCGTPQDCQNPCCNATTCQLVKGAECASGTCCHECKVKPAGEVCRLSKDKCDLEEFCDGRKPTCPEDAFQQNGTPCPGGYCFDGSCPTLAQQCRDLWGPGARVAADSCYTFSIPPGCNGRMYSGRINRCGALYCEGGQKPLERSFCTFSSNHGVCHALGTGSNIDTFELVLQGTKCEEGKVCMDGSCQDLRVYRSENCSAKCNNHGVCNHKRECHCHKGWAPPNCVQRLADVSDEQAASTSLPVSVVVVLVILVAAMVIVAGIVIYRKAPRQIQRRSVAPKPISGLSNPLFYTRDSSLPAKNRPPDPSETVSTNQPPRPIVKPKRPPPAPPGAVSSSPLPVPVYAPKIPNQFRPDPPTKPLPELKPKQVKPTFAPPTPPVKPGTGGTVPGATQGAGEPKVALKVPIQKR


Legend:
Experiment in all cases: cell-based or functional assay
[1] = target: T1, purified recombinant ADAM8
[2] = target: T1, purified recombinant ADAM8; remark: listed apart in the source
[3] = target: T1, purified recombinant ADAM8; remark: listed apart in the source

Binder	A8 Inhibition (IC50) [1]	ADAM inhibition with P1 (IC50; CD23 fluorogenic substrate) [2]	IC50 of inhibition of ADAM8 catalytic activity [3]
cyclo([βArg]LSKDK) [cyclic peptide P2, c(rLSKDK)]	> 500 nM	–	–
cyclo(R[βLeu]SKDK) [cyclic peptide P3, c(RlSKDK)]	> 500 nM	–	–
cyclo(RL[βSer]KDK) [cyclic peptide P1, c(RLsKDK), cyclo(Arg-Leu-{β-Ser}-Lys-Asp-Lys)]	100 nM	100 nM	~50 nM
